Experimental findings from patent US20250002563A1 (UNIVERSITY OF PITTSBURGH OF THE COMMONWEALTH SYSTEM OF …, published 2025) are described below.

The target of experiment [1] is RBDSARS-CoV-2 (SARS-CoV-2 S protein residues 319-539, C-terminal His-tag) (SARS-CoV-2, UniProt P0DTC2 319-539). As to the kind of experiment: ELISA. In general terms: In an ELISA, binding on a coated surface is turned into a signal by an enzyme label.
Experiment [2] deals with RBDSARS-CoV (SARS-CoV S protein residues 318-510, C-terminal His-tag) (SARS-CoV, UniProt P59594 318-510). As to the kind of experiment: ELISA.

B1: 5p-4 (VHH)
VHH: QVQLVESGGGLVQAGASLRLSCAASGRTFTNSHMGWFRQAPGKERDFVAVISRSGGSTLYADSVKGRFTISRDNAKNTVYLQMNTMKPEDTAVYYCAGARTAGLTSNPSLYDYWGQGTQVTVSS
As a reminder, the IC50 is the point on the concentration scale where inhibition reaches its midpoint. Low values mean greater potency, high ones weaker potency. Take B1: the IC50 in experiment [1] was under 10 nM; in experiment [2], 10 to 100 nM.

B2: 5p-99 (VHH)
VHH: HVQLVESGGGSVQPGGSLRLSCAASGLTLDHYAVGWFRQAPGKEREGVSCISSSTGSAYYADSVKGRFTISRDNAKNMMYLEMNSLKPEDTAVYYCATDLLRRMLPGSSWWCLNQNDFGSWGQGTQVTVSS
For B2, the IC50 was under 10 nM in experiment [1] and 1000 to 8000 nM in experiment [2].

B3: 5p-168 (VHH)
VHH: DVQLVESGGGLVQAGASLRLSCVVSGVTFSTYGMAWFRQAPEKQRTFVATITREDTTFYADSVKGRFTISRDNAKNTVYLQMNSLKLEDTAVYYCAVRRDSSWGYSRDLFEYDDWGQGTQVTVSS
On to B3, for which the IC50 in experiment [1] and in experiment [2] was under 10 nM in each case.

B4: 5p-74 (VHH)
VHH: DVQLVESGGGLVQAGGSLRLSCAASGGTSRRYTMGWFRQAPGKEREFVSAISNTGATISGANSMEGRFTISRDNAKNTVYLQMNSLKPEDTAVYYCAATSRGWSIGMTYDYWGQGTQVTVSS
Turning to B4, the IC50 in experiment [1] and in experiment [2] was under 10 nM in each case.

B5: 5p-156 (VHH)
VHH: EVQLVESGGGLVQAGDSLRLSCVASGRTFTTSIMGWFRQAPGKEREFVAAIARNGVSTFYADSVKGRFTASRDNAKNTLYLQMNSLKPEDTGVYYCAAKPRGVGLTDRISDYDYWGQGTQVTVSS
As to B5, the IC50 in experiment [1] was under 10 nM; in experiment [2] it was 10 to 100 nM.

B6: 5p-164 (VHH)
VHH: DVQLVESGGGLVKTGDSLRLSCAVSGGTFGSYGMAWFRQAPGKEREIVASIGRTGRTTDYADSVKGRFSIARDNAKNTVYLQMNNLKPEDTAVYYCAARIFSLNYALIGRDTNINYWGQGTQVTVSS
For B6, the IC50 in experiment [1] is under 10 nM; in experiment [2], 10 to 100 nM.

B7: 5p-6 (VHH)
VHH: DVQLVESGGGLVQAGGSLRLSCAASGSTFSGNAIGWYRQAPGKQRELVATINAPGSTDYAESVKGRFTISRDNAKNTVFLQMNSLKPEDTAVYYCNVCKFLLSVLCHPGQDYWGQGTQVTVSS
Consider B7, for which the IC50 in experiment [1] is under 10 nM; in experiment [2] it was 10 to 100 nM.

B8: 5p-78 (VHH)
VHH: HVQLVESGGGLVQAGGSLRLSCAAAARFSTSAMGWFRQAPGKEREFVAAVSWSNTNIHYADTVKGRFTISADTAKETVYLQMNSLKPDDTAVYYCAQGGWGLTQPIIVDYWGKGTQVTVSS
In the case of B8, the IC50 in experiment [1] and in experiment [2] was under 10 nM in each case.

B9: 5p-126 (VHH)
VHH: QVQLVESGGGLVQAGGSLRLSCAAAARFSTSAMGWFRQAPGKEREFVAAVSWSNTNTHYADTVKGRFTISADTAKETVYLQMNSLKPEDTAVYYCAQGGWGLTQPIIVDYWGKGTQVTVSS
Turning to B9, the IC50 in experiment [1] and in experiment [2] was under 10 nM throughout.

B10: 5p-162 (VHH)
VHH: DVQLVESGGGFVQAGGSLRLSCADSGLTRSVWPMGWFRQAPGKEREFVAGIAWSGERQSYADFVKGRFTVSRDNARNTVYLQMNSLKPEDTAVYYCAAPTSGVFGRTYAPTATSSYDSWGQGTQVTVSS
As to B10, the IC50 in experiment [1] and in experiment [2] was 10 to 100 nM each time.

B11: 4P-3 (VHH)
VHH: DVQLVESGGGLVQAGDSLRLSCAASGRTFGNYVLDWFRQAPGKEREFVASITQTGFGTYYADAVKGRFTISRDNAKNTMYLQMNSLKPEDTAVYYCAADFTAQNGGIRNPTYWGQGTQVTVSS
For the molecule B11, the half-inhibitory concentration (IC50) in experiment [1] fell in the range of 10 to 100 nM; in experiment [2] it was 1000 to 8000 nM.

B12: 4P-5 (VHH)
VHH: DVQLVESGGGLVQAGGSLRLSCAASGRTFGNYVLDWFRQAPGKEREFVASITQTGFGTYYADAVKGRFTISRDNAKNTMYLQMNSLKPEDTAVYYCAADFTVQNGGIRNPTYWGQGTQVTVSS
Regarding B12, the figures for the IC50 in experiment [1] and in experiment [2] were 10 to 100 nM and 100 to 1000 nM, respectively.

B13: 4P-4 (VHH)
VHH: DVQLVESGGGLVQAGDSLRLSCAASGRTFGNYVLDWFRQAPGKEREFVASITQTGFGTYYADAVKGRFTISRDNAKNTMYLQMNSLKPEDTAVYYCAADFTAQNRGIRIPRYWGQGTQVTVSS
Turning to B13, the IC50 in experiment [1] fell in the range of 10 to 100 nM; in experiment [2], 100 to 1000 nM.

B14: 4P-10 (VHH)
VHH: HVQLVESGGGLVQAGDSLRLSCTASGRTFSAYGMGWFRQAPGKEREFVAGIARSGSEYYGDSVKGRFTISRDNAKNTVYLQMASLKAEDTGVYYCAADPTILYHAISQRTQNYRYWGPGTQVTVSS
On to B14, for which the IC50 in experiment [1] is under 10 nM; in experiment [2] it was 100 to 1000 nM.

B15: 5p-98 (VHH)
VHH: QVQLVESGGGLVQPGGSLRLSCAASGRTLSNYAMGWFRQAPGKEREFVAVIRQRTGMRSYTYYADSVEGRFTISGDGAKMTVSLQMNSLKPEDTAVYYCAIDLIDDYKSTYYYSTQPSSYDYWGQGTQVTVSS
Regarding B15, the figures for the IC50 in experiment [1] and in experiment [2] were under 10 nM and 10 to 100 nM, respectively.

B16: 5p-174 (VHH)
VHH: HVQLVESGGGLVQTGASLRLSCKASGRTFSTYTISWFRQAPGKEREFVGGVATSGGTTYYGDSVQGRFTISRDNAKNEVYLQMNSVKPEDTAVYICAARSVIQDTVVISNPIHFEYWGQGTQVTVSS
For B16, the IC50 in experiment [1] and in experiment [2] was under 10 nM each time.

B17: 5p-179 (VHH)
VHH: HVQLVESGGGLVQAGGSLRLSCAASGTISTLNAMGWYRQAPGKQRELLASISNLGTTYHADSVAGRFTISRGSAKNTVNLQMNSLKPDDTAVYYCNTRVLEGGTQIRDYWGQGTQVTVSS
notes: class IV psNb
Take B17: the figures for the IC50 in experiment [1] and in experiment [2] were under 10 nM and over 8000 nM, respectively.

B18: 5p-180 (VHH)
VHH: QVQLVESGGGLVQAGGSLRLSCVASGTISTLNAMGWYRQAPGKQRELLTSISNLGTTYSADSVKGRFTISRGNAKNTVYLQMDSLKPDDTAVYYCNTRVLEGTEYRDYWGQGTQVTVSS
Regarding B18, the IC50 was under 10 nM in experiment [1] and over 8000 nM in experiment [2].

B19: 5p-171 (VHH)
VHH: QVQLVESGGGLVQTGGSLRLSCAASGRTFSTYTMGWFRQAPGKEREFVAAITPTGYGTKSADSVKGRFIISRDNPKNTVYLQMNNLKPEDTAVYYCAARSGTITNQDQYDFHYWGQGTQVTVSS
On to B19, for which the IC50 in experiment [1] was under 10 nM; in experiment [2] it was 10 to 100 nM.

B20: 5p-82 (VHH)
VHH: HVQLVESGGGLVQAGESLRLSCVDSKRTGSRWPMGWFRQAPGKEREFVASISWTGSRTYYADSVKGRFTISRDNAENTVFLQMNSLKPEDTAVYYCAAAHARVYGANWSSSNRNDYDAWGQGTQVTVSS
With B20, the half-maximal inhibitory concentration (IC50) in experiment [1] and in experiment [2] was 10 to 100 nM each time.

B21: 5p-89 (VHH)
VHH: EVQLVESGGGLVQAGGSLRLSCEDSKRTGSRWPVGWFRQAPGKEREFVASISWTGSRTYYADSVKGRFTISRDNAENTVFLKMNSLKPEDTAVYYCAAAQTRVYGANWSSSNRDDYDAWGQGTQVTVSS
For B21, the IC50 in experiment [1] and in experiment [2] was 10 to 100 nM each time.

B22: 5p-93 (VHH)
VHH: QVQLVESGGGLVQPGGSLRLSCAASGFTFNRYAMSWVRQAPGKGREWVSGIYSDGSETYYTESVKGRFTISRDNAKNMLYLQMNSLKPEDTALYYCAKDENAHEDYFNSGFDRKYDYWGQGTQVTVSS
notes: class III psNb
B22: the IC50 in experiment [1] was under 10 nM; in experiment [2], over 8000 nM.

B23: 4P-84 (VHH)
VHH: HVQLVESGGGLVQAGGSLRLSCAVSGRTVSTYGMGWFRQAPGKERDFVATITRSGGTTLYADSVKGRFTISRDNAKNTVYLQMNSLKIEDTAVYYCAVRRDSSFGYSRDSFEYDDWGQGTQVTVSS
With B23, the IC50 in experiment [1] and in experiment [2] was under 10 nM each time.

B24: 4P-86 (VHH)
VHH: DVQLVESGGGLVQAGGSLRLSCAVSGRTVSTYGMAWFRQAPGKEREFVATITRSEGTTFYADSVKGRFTISRDNAKNTVYLQMNSLKIEDTAVYYCAVRRDSSWGYSRDSFEYDDWGQGTQVTVSS
For the molecule B24, the IC50 in experiment [1] and in experiment [2] was under 10 nM in each case.

B25: 5p-169 (VHH)
VHH: DVQLVESGGGLVQAGGSLRLSCLVSGLTFSTYGMGWFRQAPGKEREFVAQITRSGSPTLYADSVKGRFTISRDNAKNTMYLQMNSLKIEDTAVYYCAVRRDSSWGYSRDSFEYDYWGQGTQVTVSS
With B25, the IC50 in experiment [1] and in experiment [2] was under 10 nM throughout.

B26: 5p-3 (VHH)
VHH: QVQLVESGGGLVQAGDSLRLSCAASGRTISTFPMGWFRQAPGKEREFVATITRTGFGTYYSDSVKGRFTISRDNAKNTVFLQMNSLKPEDTALYYCAAAKTTDWVTRAPREMHEYAYWGQGTQVTVSS
For B26, the IC50 is under 10 nM in experiment [1] and 10 to 100 nM in experiment [2].

B27: 5p-68 (VHH)
VHH: QVQLVESGGGLVQAGGSLRLSCVASGRTFSTSHMGWFRQAPGKEREFVAVISRSGSSTLDADSVKGRFTISRDNAKNTVYLQMNSLKPEDTAVYYCAGSRTAGLTSNRFLYDSWGQGTQVTVSS
As for B27, the IC50 in experiment [1] is under 10 nM; in experiment [2], 10 to 100 nM.

B28: 5p-176 (VHH)
VHH: EVQLVESGGRLVQAGGSLRLSCAASGRTFSTYTMAWFRQAPGKEREFVAGIARNGDTAYYSDSVKGRFTISRDNAKNEVSLQMNSLKPEDTAVYTCAARSVVQLEVVLNNPIHFEYWGQGTQVTVSS
Regarding B28, the IC50 in experiment [1] and in experiment [2] was under 10 nM throughout.
